From the supplement of paper PMC9112550, “Optimization of the antimicrobial peptide Bac7 by deep mutational scanning” (BMC Biology, 2022) come the findings set out here.

The data set deals with Escherichia coli TOP10. The experiment in a line: shrunken log2 fold change of peptide-encoding DNA abundance (4.5 h post-induction vs induction); higher = less antimicrobial activity (less host growth inhibition). The note with it: time post-induction: 4.5 h; library: site-saturation at positions 5, 18, 19, 20.
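Note: peptides expressed intracellularly from a pBAD plasmid library in pooled LB shake-flask culture, induced with 0.3% L-arabinose, DNA abundance read by NGS, three biological replicates, DESeq2 with apeglm shrinkage.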

In the case of RRIRDRPPRLPRPRPRPFWNPRP, the “shrunken log2 fold change” value is -0.28. On to RRIRPRPPRLPRPRPRPYLEPRP, for which the “shrunken log2 fold change” value was -0.634. For RRIRIRPPRLPRPRPRPKVQPRP, the “shrunken log2 fold change” value is -0.491. In the case of RRIRRRPPRLPRPRPRPQSSPRP, the “shrunken log2 fold change” value is -0.0217. Consider RRIRIRPPRLPRPRPRPWRWPRP, for which the “shrunken log2 fold change” value is 0.182. For RRIRGRPPRLPRPRPRPEIIPRP, the “shrunken log2 fold change” value amounted to 1.5.

With RRIRWRPPRLPRPRPRPDQLPRP, the “shrunken log2 fold change” value was determined as 0.066.

Turning to RRIRMRPPRLPRPRPRPLSPPRP, the “shrunken log2 fold change” value was found to be 0.345. Take RRIRMRPPRLPRPRPRPCFPPRP: the “shrunken log2 fold change” value was 0.157. With RRIRIRPPRLPRPRPRPSVSPRP, the “shrunken log2 fold change” value was -0.0804. RRIRMRPPRLPRPRPRPHNTPRP: the “shrunken log2 fold change” value was -0.168.

Regarding RRIRIRPPRLPRPRPRPAQDPRP, the “shrunken log2 fold change” value was -0.0552. On to RRIRERPPRLPRPRPRPRRQPRP, for which the “shrunken log2 fold change” value amounted to 0.00864. Under RRIRCRPPRLPRPRPRPKHMPRP stands -0.25; under RRIRKRPPRLPRPRPRPELHPRP, 0.0814.

Turning to RRIRHRPPRLPRPRPRPTTNPRP, the “shrunken log2 fold change” value was -0.348. For the sequence RRIRLRPPRLPRPRPRPVHSPRP, the “shrunken log2 fold change” value is 0.00898. In the case of RRIRLRPPRLPRPRPRPHQTPRP, the “shrunken log2 fold change” value came to 0.001. As to RRIRDRPPRLPRPRPRPHQVPRP, the “shrunken log2 fold change” value was -0.00776. Turning to RRIRFRPPRLPRPRPRPYATPRP, the “shrunken log2 fold change” value was -0.419. Next, RRIRVRPPRLPRPRPRPMFQPRP: -0.267.

As for RRIRKRPPRLPRPRPRPAGRPRP, the “shrunken log2 fold change” value turned out to be 0.432. Regarding RRIRLRPPRLPRPRPRPKVNPRP, the “shrunken log2 fold change” value is 0.0232. Next, RRIRIRPPRLPRPRPRPQFIPRP: -0.782; RRIRLRPPRLPRPRPRPIRLPRP: -0.3. Regarding RRIRSRPPRLPRPRPRPFCRPRP, the “shrunken log2 fold change” value was -0.0968.

Regarding RRIRFRPPRLPRPRPRPKEWPRP, the “shrunken log2 fold change” value was -0.00364. Consider RRIRPRPPRLPRPRPRPATKPRP, for which the “shrunken log2 fold change” value came to 0.29. As for RRIRNRPPRLPRPRPRPIQYPRP, the “shrunken log2 fold change” value was -0.377.

Consider RRIRPRPPRLPRPRPRPKAQPRP, for which the “shrunken log2 fold change” value is -0.155. With RRIRIRPPRLPRPRPRPQMWPRP, the “shrunken log2 fold change” value is -0.171. Regarding RRIRHRPPRLPRPRPRPYQSPRP, the “shrunken log2 fold change” value stood at 0.0306.

RRIRHRPPRLPRPRPRPELGPRP: the “shrunken log2 fold change” value was -0.101. As for RRIRIRPPRLPRPRPRPISNPRP, the “shrunken log2 fold change” value is -0.000216. As to RRIRYRPPRLPRPRPRPPGLPRP, the “shrunken log2 fold change” value stood at 0.148. For RRIRVRPPRLPRPRPRPNNGPRP, the “shrunken log2 fold change” value was -0.497.

Take RRIRFRPPRLPRPRPRPYVSPRP: the “shrunken log2 fold change” value was -0.438. On to RRIRSRPPRLPRPRPRPRDHPRP, for which the “shrunken log2 fold change” value came to 0.0497. Under RRIRERPPRLPRPRPRPRTVPRP stands 0.0995; under RRIRYRPPRLPRPRPRPLNRPRP, -1.92; under RRIRWRPPRLPRPRPRPLFLPRP, -0.318. As to RRIRGRPPRLPRPRPRPHLGPRP, the “shrunken log2 fold change” value amounted to 0.427. Next, RRIRPRPPRLPRPRPRPYMNPRP: -1.01. Take RRIRFRPPRLPRPRPRPFTAPRP: the “shrunken log2 fold change” value was -0.662.

Consider RRIRSRPPRLPRPRPRPRQRPRP, for which the “shrunken log2 fold change” value was determined as 0.293. RRIRDRPPRLPRPRPRPYLMPRP: the “shrunken log2 fold change” value was -0.187. Regarding RRIRIRPPRLPRPRPRPEKSPRP, the “shrunken log2 fold change” value is 0.028. As to RRIRFRPPRLPRPRPRPQGMPRP, the “shrunken log2 fold change” value was -0.0535. Take RRIRLRPPRLPRPRPRPHLSPRP: the “shrunken log2 fold change” value was -0.0728. As to RRIRVRPPRLPRPRPRPTGEPRP, the “shrunken log2 fold change” value came to 0.187. In the case of RRIRSRPPRLPRPRPRPRQHPRP, the “shrunken log2 fold change” value was determined as 0.169.

Take RRIRVRPPRLPRPRPRPQFSPRP: the “shrunken log2 fold change” value was -0.0362. In the case of RRIRPRPPRLPRPRPRPHREPRP, the “shrunken log2 fold change” value was -0.176. For the sequence RRIRERPPRLPRPRPRPGHWPRP, the “shrunken log2 fold change” value came out at 0.0159. In the case of RRIRPRPPRLPRPRPRPCTDPRP, the “shrunken log2 fold change” value is -0.0332. Take RRIRGRPPRLPRPRPRPNSAPRP: the “shrunken log2 fold change” value amounted to 0.749.

Turning to RRIRARPPRLPRPRPRPRLCPRP, the “shrunken log2 fold change” value worked out at 0.574.

For RRIRLRPPRLPRPRPRPFSDPRP, the “shrunken log2 fold change” value was 0.0391. Take RRIRRRPPRLPRPRPRPSKIPRP: the “shrunken log2 fold change” value came to 0.0224. For the sequence RRIRRRPPRLPRPRPRPEPFPRP, the “shrunken log2 fold change” value is -0.0448. Regarding RRIRDRPPRLPRPRPRPSPFPRP, the “shrunken log2 fold change” value was -0.0929. Next, RRIRVRPPRLPRPRPRPMVNPRP: -0.158; RRIRYRPPRLPRPRPRPSAPPRP: -0.353.

For the sequence RRIRARPPRLPRPRPRPLIQPRP, the “shrunken log2 fold change” value was 0.0545. For RRIRMRPPRLPRPRPRPHGTPRP, the “shrunken log2 fold change” value was determined as 0.148.

As for RRIRYRPPRLPRPRPRPYPWPRP, the “shrunken log2 fold change” value was 0.0116. For RRIRHRPPRLPRPRPRPPECPRP, the “shrunken log2 fold change” value was 0.331.

RRIRRRPPRLPRPRPRPENQPRP: the “shrunken log2 fold change” value stood at 0.368.

As to RRIRLRPPRLPRPRPRPVRWPRP, the “shrunken log2 fold change” value turned out to be 0.928. Regarding RRIRNRPPRLPRPRPRPQNGPRP, the “shrunken log2 fold change” value turned out to be 0.00902.

As for RRIRPRPPRLPRPRPRPQYYPRP, the “shrunken log2 fold change” value was -0.422. Regarding RRIRHRPPRLPRPRPRPHETPRP, the “shrunken log2 fold change” value was found to be 0.0369. With RRIRARPPRLPRPRPRPKLVPRP, the “shrunken log2 fold change” value was 0.106. RRIRNRPPRLPRPRPRPNNEPRP: the “shrunken log2 fold change” value is -0.208. Consider RRIRTRPPRLPRPRPRPKTVPRP, for which the “shrunken log2 fold change” value was -0.0654.

On to RRIRVRPPRLPRPRPRPGIRPRP, for which the “shrunken log2 fold change” value was -0.0476. Consider RRIRFRPPRLPRPRPRPLHVPRP, for which the “shrunken log2 fold change” value was -0.208. As for RRIRGRPPRLPRPRPRPKIPPRP, the “shrunken log2 fold change” value amounted to 0.0163. With RRIRTRPPRLPRPRPRPYLMPRP, the “shrunken log2 fold change” value was -0.601. On to RRIRIRPPRLPRPRPRPPKDPRP, for which the “shrunken log2 fold change” value was -0.674. In the case of RRIRLRPPRLPRPRPRPATKPRP, the “shrunken log2 fold change” value stood at 0.0731. For the sequence RRIRDRPPRLPRPRPRPLYEPRP, the “shrunken log2 fold change” value was -0.0254. Consider RRIRIRPPRLPRPRPRPMEWPRP, for which the “shrunken log2 fold change” value was -0.00133. Under RRIRSRPPRLPRPRPRPICRPRP stands -0.0192. Turning to RRIRCRPPRLPRPRPRPWGCPRP, the “shrunken log2 fold change” value is -0.00936. For RRIRGRPPRLPRPRPRPQGGPRP, the “shrunken log2 fold change” value turned out to be 0.127. Under RRIRNRPPRLPRPRPRPWSGPRP stands -0.173; under RRIRHRPPRLPRPRPRPREHPRP, -0.126; under RRIRTRPPRLPRPRPRPDDKPRP, -0.294. Consider RRIRTRPPRLPRPRPRPGNDPRP, for which the “shrunken log2 fold change” value is -0.219. RRIRIRPPRLPRPRPRPSSKPRP: the “shrunken log2 fold change” value was -0.599.
